Holding throughout (assay): cell-based or functional assay
The target of test [1] is T1, recombinant N-terminal His-tag HGFA serine protease domain (UniProt Q04756 373-655).
T1 sequence (looked up): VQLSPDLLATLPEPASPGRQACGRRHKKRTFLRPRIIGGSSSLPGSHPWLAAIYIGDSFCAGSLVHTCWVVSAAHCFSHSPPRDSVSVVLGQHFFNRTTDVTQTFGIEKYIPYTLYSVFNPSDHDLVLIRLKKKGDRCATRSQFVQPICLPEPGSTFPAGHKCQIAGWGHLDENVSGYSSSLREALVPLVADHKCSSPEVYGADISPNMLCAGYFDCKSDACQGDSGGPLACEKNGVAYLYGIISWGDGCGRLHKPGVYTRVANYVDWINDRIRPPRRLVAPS

For test [2], the target named is T2, matriptase (#3946-SE-010, R&D Systems) (UniProt Q9Y5Y6 615-855).
T2 sequence (looked up): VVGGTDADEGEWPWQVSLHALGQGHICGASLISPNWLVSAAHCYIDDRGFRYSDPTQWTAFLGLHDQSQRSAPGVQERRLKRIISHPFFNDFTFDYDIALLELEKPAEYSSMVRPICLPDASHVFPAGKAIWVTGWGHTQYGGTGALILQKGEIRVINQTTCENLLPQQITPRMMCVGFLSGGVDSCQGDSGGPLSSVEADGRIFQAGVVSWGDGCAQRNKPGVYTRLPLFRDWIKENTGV

Test [3] concerns the target T3, recombinant thrombin (#1473-SE-010, R&D Systems) (UniProt P00734 44-622).
In test [4] the target is T4, activated hepsin (#4776-SE-010, R&D Systems) (UniProt P05981 45-417, limits assumed).
Test [5] deals with T5, Factor Xa (#1063-SE-010, R&D Systems) (UniProt P00742 41-488, limits assumed).
Test [6] deals with T1, recombinant N-terminal His-tag HGFA …. The source holds these as a separate data set.
Test [7] concerns the target T2, matriptase (#3946-SE-010, R&D Systems). This is another data set of the same source.
Test [8] concerns the target T6, human TMPRSS2 (human, UniProt O15393 1-492).
The target of test [9] is T4, activated hepsin (#4776-SE-010, R&D …). The source holds these as a separate data set.
Test [10] concerns the target T7, KLK5 (#1108-SE-010, R&D Systems) (UniProt Q9Y337 23-293, limits assumed).
T7 sequence (looked up): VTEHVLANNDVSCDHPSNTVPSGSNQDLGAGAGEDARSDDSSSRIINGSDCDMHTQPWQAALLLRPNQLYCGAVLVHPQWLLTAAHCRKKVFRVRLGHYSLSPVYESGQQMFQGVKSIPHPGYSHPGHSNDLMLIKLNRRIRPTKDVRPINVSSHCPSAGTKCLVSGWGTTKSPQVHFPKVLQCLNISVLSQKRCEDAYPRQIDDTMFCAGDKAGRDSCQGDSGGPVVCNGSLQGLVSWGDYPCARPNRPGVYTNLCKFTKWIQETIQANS

Test [11] has as its target T6, human TMPRSS2. The source holds these as a separate data set.
Test [12] deals with T1, recombinant N-terminal His-tag HGFA …. The source holds these as a separate data set.
Test [13] concerns the target T2, matriptase (#3946-SE-010, R&D Systems). This is another data set of the same source.
The target of test [14] is T3, recombinant thrombin (#1473-SE-010, R&D …). This is another data set of the same source.
The target of test [15] is T5, Factor Xa (#1063-SE-010, R&D Systems). The source holds these as a separate data set.
The target of test [16] is T4, activated hepsin (#4776-SE-010, R&D …). This is another data set of the same source.

Where two headings read alike, the source gives them in different places. Positions of bridges follow the written chain, without caps; N, C: chain ends. Non-standard residues stand in square brackets, D forms with d. Primed or numbered codes have the meaning given here. *: point of attachment. X5 = 1‑acetyl‑4‑phenethylpiperidin‑4‑yl carbamate, CC(=O)N1CCC(CCc2ccccc2)(OC(=O)*)CC1; X4 = 1‑(phenylsulfonyl)piperidin‑4‑yl carbamate, O=C(OC1CCN(S(=O)(=O)c2ccccc2)CC1)*; X2 = 1‑(ethylsulfonyl)piperidin‑4‑yl carbamate, CCS(=O)(=O)N1CCC(OC(=O)*)CC1; X3 = 4‑benzylpiperidin‑4‑yl carbamate, O=C(OC1(Cc2ccccc2)CCNCC1)*; X1 = 4‑phenylpiperidin‑4‑yl carbamate, O=C(OC1(c2ccccc2)CCNCC1)*; kbt″ = ketobenzothiazole (C-terminal Arg), c1ccc2sc(*)nc2c1; kbt = C-terminal Arg ketobenzothiazole; Cha = N[C@@H](CC1CCCCC1)C(=O)O Where only a bound is given, the exact number is not on record here.

T4 sequence (P05981 45-417 limits assumed): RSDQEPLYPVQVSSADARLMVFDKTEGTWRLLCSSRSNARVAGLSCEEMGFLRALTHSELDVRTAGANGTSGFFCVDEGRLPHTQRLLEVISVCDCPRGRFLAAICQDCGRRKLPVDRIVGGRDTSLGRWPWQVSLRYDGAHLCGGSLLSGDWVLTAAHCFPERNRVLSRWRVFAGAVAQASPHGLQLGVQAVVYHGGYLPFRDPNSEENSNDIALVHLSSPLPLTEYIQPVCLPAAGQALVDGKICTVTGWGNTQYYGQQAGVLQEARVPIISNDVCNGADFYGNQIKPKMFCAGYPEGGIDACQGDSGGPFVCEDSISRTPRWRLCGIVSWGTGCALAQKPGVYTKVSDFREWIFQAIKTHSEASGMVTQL
T6 sequence (O15393 whole entry): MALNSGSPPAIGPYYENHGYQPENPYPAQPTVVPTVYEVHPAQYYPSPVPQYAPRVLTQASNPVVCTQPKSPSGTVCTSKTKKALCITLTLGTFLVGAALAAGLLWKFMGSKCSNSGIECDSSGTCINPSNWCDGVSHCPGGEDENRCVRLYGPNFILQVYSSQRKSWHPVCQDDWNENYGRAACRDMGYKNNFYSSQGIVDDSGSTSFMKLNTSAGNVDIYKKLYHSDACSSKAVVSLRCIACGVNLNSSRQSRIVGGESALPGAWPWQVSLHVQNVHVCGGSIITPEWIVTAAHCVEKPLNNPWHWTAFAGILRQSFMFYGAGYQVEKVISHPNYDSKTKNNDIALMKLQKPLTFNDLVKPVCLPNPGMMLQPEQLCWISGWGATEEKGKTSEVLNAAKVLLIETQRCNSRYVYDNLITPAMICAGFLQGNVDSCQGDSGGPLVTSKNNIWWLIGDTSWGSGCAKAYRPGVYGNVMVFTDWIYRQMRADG
T5 sequence (P00742 41-488 limits assumed): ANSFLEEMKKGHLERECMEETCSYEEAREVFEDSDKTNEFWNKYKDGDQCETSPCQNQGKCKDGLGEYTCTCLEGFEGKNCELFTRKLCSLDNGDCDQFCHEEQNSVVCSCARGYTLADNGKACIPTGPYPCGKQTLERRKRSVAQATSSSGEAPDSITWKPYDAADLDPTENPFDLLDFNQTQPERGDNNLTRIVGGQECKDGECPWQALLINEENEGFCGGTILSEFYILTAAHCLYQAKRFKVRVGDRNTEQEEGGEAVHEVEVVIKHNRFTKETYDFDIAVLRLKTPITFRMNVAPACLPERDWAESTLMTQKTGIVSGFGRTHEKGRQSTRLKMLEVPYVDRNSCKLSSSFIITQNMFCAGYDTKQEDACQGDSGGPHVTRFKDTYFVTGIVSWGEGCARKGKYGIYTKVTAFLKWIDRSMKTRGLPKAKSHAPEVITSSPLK

B1: 4-phenylpiperidin-4-yl ((S)-1-(((S)-1-(benzo[d]thiazol-2-yl)-5-guanidino-1-oxopentan-2-yl)amino)-4-methyl-1-oxopentan-2-yl)carbamate (8a) (peptide)
peptide: X1-Leu-Arg-kbt
Turning to B1, the “HGFA IC50” value in [1] was 780 nM. The “Matriptase IC50” value in [2] came to 90 nM. Besides, in test [3], the “Thrombin IC50” value was over 20000 nM. Moreover, the “Hepsin IC50” value in test [4] was 5 nM.

B2: 1-(phenylsulfonyl)piperidin-4-yl Leu-Arg-kbt carbamate (8f) (peptide)
peptide: X4-Leu-Arg-kbt
As to B2, the “HGFA IC50” value in test [1] is 8600 nM. For the same molecule, the “Matriptase IC50” value in test [2] turned out to be 810 nM. Besides, the “Thrombin IC50” value in test [3] was over 20000 nM. Further, in [5], the “Factor Xa IC50” value is over 20000 nM. Besides, in test [4], the “Hepsin IC50” value was found to be 20 nM.

B3: Ac-SKLR kbt V-amide, ZFH7116 (peptide)
peptide: Ac-SKLR-{kbt-Val-NH2}
Consider B3, for which the “HGFA IC50” value in test [6] came to 26 nM. For the same molecule, in test [7], the “Matriptase IC50” value worked out at 11 nM. The “Calu-3 EC50” value in test [8] came out at 307 nM. Further, the “Hepsin IC50” value in [9] was 0.5 nM. Also, the “KLK5 IC50” value in [10] amounted to 137 nM. Also, the “IC50, cell-based TMPRSS2 fluorogenic enzyme inhibition assay” value in [11] stood at 51 nM.

B4: 4-benzylpiperidin-4-yl Leu-Arg-kbt carbamate (8b) (peptide)
peptide: X3-Leu-Arg-kbt
As for B4, the “HGFA IC50” value in test [1] was 1200 nM. The “Matriptase IC50” value in test [2] came out at 30 nM. For the same molecule, the “Thrombin IC50” value in test [3] was over 20000 nM. In test [5], the “Factor Xa IC50” value turned out to be 6500 nM. Also, the “Hepsin IC50” value in [4] was 0.6 nM.

B5: 4-phenylpiperidin-4-yl Cha-Arg-kbt carbamate (8d) (peptide)
peptide: X1-[Cha]-Arg-{kbt″}
As to B5, the “HGFA IC50” value in test [1] is over 20000 nM. Further, the “Matriptase IC50” value in test [2] turned out to be 2100 nM. In addition, the “Thrombin IC50” value in test [3] is over 20000 nM. The “Factor Xa IC50” value in test [5] came out at 9000 nM. The “Hepsin IC50” value in test [4] was determined as 90 nM.

B6: 1-acetyl-4-phenethylpiperidin-4-yl Leu-Arg-kbt carbamate (8c) (peptide)
peptide: X5-Leu-Arg-kbt
With B6, the “HGFA IC50” value in test [1] is over 20000 nM. Moreover, the “Matriptase IC50” value in [2] was 70 nM. In addition, the “Thrombin IC50” value in test [3] was 7700 nM. Moreover, in test [5], the “Factor Xa IC50” value stood at 2000 nM. Besides, in test [4], the “Hepsin IC50” value came out at 0.5 nM.

B7: phenyl(piperidin-4-yl)methyl Leu-Arg-kbt carbamate (11a) (peptide)
peptide: {phenyl(piperidin-4-yl)methyl carbamate}-Leu-Arg-kbt
B7: the “HGFA IC50” value in [1] is 14000 nM. Besides, the “Matriptase IC50” value in test [2] was determined as 1100 nM. In test [3], the “Thrombin IC50” value is over 20000 nM. Besides, the “Factor Xa IC50” value in test [5] is over 20000 nM. Moreover, in test [4], the “Hepsin IC50” value is 8 nM.

B8: 1-(ethylsulfonyl)piperidin-4-yl Leu-Arg-kbt carbamate (8h) (peptide)
peptide: X2-Leu-Arg-kbt
As to B8, in test [1], the “HGFA IC50” value is over 20000 nM. For the same molecule, in test [2], the “Matriptase IC50” value came out at 730 nM. In addition, the “Thrombin IC50” value in test [3] is over 20000 nM. In test [5], the “Factor Xa IC50” value was over 20000 nM. The “Hepsin IC50” value in test [4] turned out to be 10 nM.

B9: Cyclo(DLK)R-kbt, VD2173 (peptide)
peptide: Ac-DLKR-kbt
modifications: lactam 1-3; not fully specified; printed as Cyclo(DLK)R-kbt; also: N-terminal acetyl described as 6-acetamido
With B9, the “HGFA (IC50 nM)” value in test [12] turned out to be 3590 nM. For the same molecule, the “Matriptase (IC50 nM)” value in [13] was 0.28 nM. Besides, the “Thrombin* (IC50 nM)” value in test [14] turned out to be 700 nM. The “Factor Xa* (IC50 nM)” value in test [15] stood at 564 nM. Besides, the “Hepsin (IC50 nM)” value in test [16] turned out to be 8.4 nM. Also, the “HGFA IC50” value in [6] is 5260 nM. In addition, the “Matriptase IC50” value in test [7] was determined as 1.4 nM. The “Calu-3 EC50” value in test [8] amounted to 104 nM. Moreover, the “Hepsin IC50” value in test [9] was found to be 10 nM. Also, the “KLK5 IC50” value in test [10] was determined as 193 nM. For the same molecule, in test [11], the “IC50, cell-based TMPRSS2 fluorogenic enzyme inhibition assay” value amounted to 6.9 nM.

For the origin of these results see patent publication US20220380407A1 (WASHINGTON UNIVERSITY, published 2022).
